The target in one data set is CD33 antigen (UniProt P20138 18-259). Kind of data set: electrochemical (current-volt, SWCN-modified IDE); 100 nM CD33; Aptamer immobilized on APTMS-SWCN surface, PEG-COOH blocked; 30 min protein incubation; washes 10 mM PBS pH 7.4; room temperature; 0-2 V in 0.1 V steps.
For data set [1], the target named is T1, CD19 (Homo sapiens, UniProt P15391 20-291). Kind of data set: electrochemical (current-volt, SWCN-modified IDE); 10-100 nM CD19; LOD 10 nM; near saturation above 60 nM; Aptamer immobilized on APTMS-SWCN surface, PEG-COOH blocked; 30 min protein incubation; washes 10 mM PBS pH 7.4; room temperature; 0-2 V in 0.1 V steps. Particulars: protein: recombinant.
T1 sequence (P15391 20-291): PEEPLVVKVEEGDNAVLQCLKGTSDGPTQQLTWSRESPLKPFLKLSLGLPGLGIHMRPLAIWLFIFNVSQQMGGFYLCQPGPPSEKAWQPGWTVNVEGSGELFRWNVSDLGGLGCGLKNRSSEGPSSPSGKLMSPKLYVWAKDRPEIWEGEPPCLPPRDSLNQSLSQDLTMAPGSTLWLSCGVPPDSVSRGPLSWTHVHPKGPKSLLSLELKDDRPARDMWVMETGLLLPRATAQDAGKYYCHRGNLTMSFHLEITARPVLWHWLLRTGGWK
In data set [2] the target is T1, CD19. Description: electrochemical (current-volt, SWCN-modified IDE); 100 nM CD19; Aptamer immobilized on APTMS-SWCN surface, PEG-COOH blocked; 30 min protein incubation; washes 10 mM PBS pH 7.4; room temperature; 0-2 V in 0.1 V steps. To be noted: protein: recombinant.

CD33 antigen, sequence (P20138 18-259): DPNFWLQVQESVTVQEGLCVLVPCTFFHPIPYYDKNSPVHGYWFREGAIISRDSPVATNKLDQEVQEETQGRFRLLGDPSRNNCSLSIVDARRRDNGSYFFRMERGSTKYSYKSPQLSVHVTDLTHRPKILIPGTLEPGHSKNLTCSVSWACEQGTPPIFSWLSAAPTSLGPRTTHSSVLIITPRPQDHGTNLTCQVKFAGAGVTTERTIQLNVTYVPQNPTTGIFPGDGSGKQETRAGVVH

B1: CD19 aptamer (ssDNA)
DNA: TGCGTGTGTAGTGTGTCTGTTCTCCTTTTTTTGGTTGCTGCTCTTAGGGATTTGGGCGG
modifications: 5' C6-COOH
On to B1, for which the results for the binding result with CD33 antigen and with CD19 [1] were “no binding” and “binds”, respectively.

B2: complementary aptamer (ssDNA)
DNA: ACGCACACATCACACAGACAAGAGGAAAAAAACCAACGACGAGAATCCCTAAACCCGCC
modifications: 5' C6-COOH
As for B2, the binding result in the data set with CD19 [2] was “no binding”.

Values taken from publication PMC11387253, “High sensitive aptasensing chronic myeloid leukemia on circular electrode-modified by single-walled carbon nanotube”.
